For assay [1], the target named is PorZ from Porphyromonas gingivalis (Porphyromonas gingivalis) (UniProt Q9S3Q8). The experiment in a line: MST.
Assay [2] shares this target. Kind of assay: MST. The source holds these as a separate data set.

pKd: −log10 of the molar value. Like-named read-outs stand apart in the source and are kept apart here.

The term pKd denotes the Kd on a negative log10 scale, so that one unit is a factor of ten.

As for “PorU sortase from Porphyromonas gingivalis, hexahistidine-tagged (from UniProt B2RGP6 1-1158) (enzyme)”, the values for the pKd in assay [1] and in assay [2] were 6.17 and 5.47, respectively.

The values are drawn from doi:10.1101/2020.07.16.206169.
